Assay [1] concerns the target T1, HPV52 VLP protein (human papillomavirus type 52, UniProt Q05138 27-504).
T1 construct: Complete VLP protein; no limits of the construct printed, whole entry named; also called P52SHELL
T1 sequence: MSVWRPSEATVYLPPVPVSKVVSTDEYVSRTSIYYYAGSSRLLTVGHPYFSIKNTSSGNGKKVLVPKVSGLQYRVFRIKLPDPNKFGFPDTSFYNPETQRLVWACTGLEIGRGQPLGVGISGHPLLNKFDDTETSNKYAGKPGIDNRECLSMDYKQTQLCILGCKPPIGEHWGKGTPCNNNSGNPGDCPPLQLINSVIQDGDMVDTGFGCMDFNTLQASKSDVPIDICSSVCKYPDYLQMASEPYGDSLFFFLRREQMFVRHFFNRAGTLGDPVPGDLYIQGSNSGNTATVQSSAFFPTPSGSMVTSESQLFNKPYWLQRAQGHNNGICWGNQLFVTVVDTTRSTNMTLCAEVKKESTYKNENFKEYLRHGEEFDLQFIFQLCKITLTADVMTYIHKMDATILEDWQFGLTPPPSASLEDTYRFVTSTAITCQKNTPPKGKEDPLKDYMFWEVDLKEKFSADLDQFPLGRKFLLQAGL
Nature of the assay: indirect ELISA on coated VLP. A general note: In an ELISA, binding on a coated surface is turned into a signal by an enzyme label.

In assay [2] the target is T2, HPV11 VLP protein (human papillomavirus type 11; human …, UniProt P04012 1-470; P06416 474-499).
T2 construct: range 1-470;range 474-499; Complete VLP protein used as coating protein
T2 sequence: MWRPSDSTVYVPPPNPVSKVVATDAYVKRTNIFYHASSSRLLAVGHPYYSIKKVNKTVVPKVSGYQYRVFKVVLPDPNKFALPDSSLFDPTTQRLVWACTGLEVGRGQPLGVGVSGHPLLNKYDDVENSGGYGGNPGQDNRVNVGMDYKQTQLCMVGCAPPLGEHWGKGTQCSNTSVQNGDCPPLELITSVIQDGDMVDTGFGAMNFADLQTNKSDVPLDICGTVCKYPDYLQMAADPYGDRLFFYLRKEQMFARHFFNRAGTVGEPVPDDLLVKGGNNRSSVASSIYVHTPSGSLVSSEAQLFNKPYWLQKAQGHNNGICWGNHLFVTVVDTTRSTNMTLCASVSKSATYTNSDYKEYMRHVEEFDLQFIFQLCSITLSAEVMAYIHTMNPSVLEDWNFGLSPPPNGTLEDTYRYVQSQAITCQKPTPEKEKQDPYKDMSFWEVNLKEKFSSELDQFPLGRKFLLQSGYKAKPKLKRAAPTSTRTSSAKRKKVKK
Nature of the assay: indirect ELISA on coated VLP.

The target of assay [3] is T3, HPV58 VLP protein (human papillomavirus type 58, UniProt P26535 27-499).
T3 construct: Complete VLP protein; no limits of the construct printed, whole entry named; also called P58SHELL
T3 sequence: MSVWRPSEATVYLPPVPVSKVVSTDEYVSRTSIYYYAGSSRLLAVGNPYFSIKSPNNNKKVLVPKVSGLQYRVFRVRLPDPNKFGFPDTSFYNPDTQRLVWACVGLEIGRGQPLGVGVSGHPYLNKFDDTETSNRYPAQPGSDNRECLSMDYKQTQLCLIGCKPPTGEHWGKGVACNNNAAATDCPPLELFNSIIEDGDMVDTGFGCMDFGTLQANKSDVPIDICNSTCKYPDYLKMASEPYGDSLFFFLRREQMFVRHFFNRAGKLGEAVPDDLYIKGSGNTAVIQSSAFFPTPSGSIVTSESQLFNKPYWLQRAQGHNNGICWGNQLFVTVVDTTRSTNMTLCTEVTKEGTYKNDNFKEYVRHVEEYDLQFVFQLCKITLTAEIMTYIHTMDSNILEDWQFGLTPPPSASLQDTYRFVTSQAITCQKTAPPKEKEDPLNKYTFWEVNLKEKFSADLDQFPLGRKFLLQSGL
The experiment in a line: indirect ELISA on coated VLP.

In assay [4] the target is T4, HPV56 VLP protein (human papillomavirus type 56, UniProt P36743 36-507).
T4 construct: Complete VLP protein; no limits of the construct printed, whole entry named; also called HPV56L1
T4 sequence: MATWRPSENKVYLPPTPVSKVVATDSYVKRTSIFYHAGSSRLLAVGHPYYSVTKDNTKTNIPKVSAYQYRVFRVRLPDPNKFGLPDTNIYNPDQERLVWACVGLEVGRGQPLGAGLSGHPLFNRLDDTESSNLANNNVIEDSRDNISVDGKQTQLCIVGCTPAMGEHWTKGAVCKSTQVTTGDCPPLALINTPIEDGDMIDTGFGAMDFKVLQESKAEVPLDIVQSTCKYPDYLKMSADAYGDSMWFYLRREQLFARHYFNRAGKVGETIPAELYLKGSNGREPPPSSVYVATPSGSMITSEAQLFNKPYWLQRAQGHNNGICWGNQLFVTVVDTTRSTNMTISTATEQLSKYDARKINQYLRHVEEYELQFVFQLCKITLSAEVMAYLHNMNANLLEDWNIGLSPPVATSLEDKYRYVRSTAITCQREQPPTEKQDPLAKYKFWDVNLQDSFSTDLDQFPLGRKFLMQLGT
The experiment in a line: indirect ELISA on coated VLP.

Assay [5] deals with T5, HPV45 VLP protein (human papillomavirus type 45; human …, UniProt P36741 1-478; P06416 474-499).
T5 construct: range 1-478;range 474-499; Complete VLP protein used as coating protein; also called HPV45L1(1-478L)+HPV33L1(474K-499K)
T5 sequence: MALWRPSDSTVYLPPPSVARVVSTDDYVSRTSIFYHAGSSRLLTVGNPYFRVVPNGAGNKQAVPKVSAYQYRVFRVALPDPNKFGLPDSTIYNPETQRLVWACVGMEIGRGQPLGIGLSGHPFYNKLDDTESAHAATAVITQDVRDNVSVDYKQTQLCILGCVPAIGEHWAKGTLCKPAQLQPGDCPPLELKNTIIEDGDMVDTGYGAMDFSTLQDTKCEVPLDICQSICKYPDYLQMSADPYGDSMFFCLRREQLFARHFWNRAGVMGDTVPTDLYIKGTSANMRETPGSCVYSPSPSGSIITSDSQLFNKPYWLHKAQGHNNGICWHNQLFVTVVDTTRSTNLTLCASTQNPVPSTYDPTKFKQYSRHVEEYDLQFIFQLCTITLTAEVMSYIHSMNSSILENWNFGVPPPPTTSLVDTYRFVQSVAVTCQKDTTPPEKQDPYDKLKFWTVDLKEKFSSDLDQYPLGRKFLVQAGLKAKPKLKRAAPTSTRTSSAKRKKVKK
The experiment in a line: indirect ELISA, VLP coated at 2 µg/mL, antibody 10 ng/mL, HRP goat anti-rabbit Fc.

In assay [6] the target is HPV39 VLP protein (human papillomavirus type 39; human …, UniProt P24838 1-469). The description is as above.
HPV39 VLP protein, sequence (P24838 whole entry): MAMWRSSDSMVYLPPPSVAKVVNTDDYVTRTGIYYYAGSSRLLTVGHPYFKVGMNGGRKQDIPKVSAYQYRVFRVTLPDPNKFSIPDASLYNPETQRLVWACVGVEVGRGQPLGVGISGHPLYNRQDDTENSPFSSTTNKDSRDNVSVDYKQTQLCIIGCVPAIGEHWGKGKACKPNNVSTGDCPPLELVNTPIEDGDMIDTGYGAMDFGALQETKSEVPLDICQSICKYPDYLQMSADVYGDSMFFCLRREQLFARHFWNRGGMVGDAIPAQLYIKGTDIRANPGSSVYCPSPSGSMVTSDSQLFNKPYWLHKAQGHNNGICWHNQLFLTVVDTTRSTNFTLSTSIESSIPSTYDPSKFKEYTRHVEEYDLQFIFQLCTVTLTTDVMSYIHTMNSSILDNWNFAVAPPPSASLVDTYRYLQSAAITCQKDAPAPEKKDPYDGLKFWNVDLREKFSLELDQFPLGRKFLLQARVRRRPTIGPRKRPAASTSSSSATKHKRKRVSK

B1: monoclonal antibody HPV6-R003 (antibody, V domains shown)
VH: QQQLEESGGGLVKPGGTLTLTCKASGIDLSNYYMCWVRQAPGKGLEWIGCIYTGSGRTYYASWAKGRFTISKASSTTVTLQMTSLTAADTATYFCARDYLGWRASNIWGPGTLVTVSS
VL: ELVMTQTPSSVSAAVGGTVTINCQASQSVYSNNLVWYQQKPGQPPKLLIYGASTLASGVPSRFKGSGSGTQFTLTISDVVCDDAATYYCGGYVSDSTDGTAFGGGTEVVVKG
notes: here built from variable plus constant region so that the signal peptides are left out; In the sandwich ELISA the same antibody is used as coating antibody and, labelled with horseradish peroxidase, as detection antibody; also called anti-HPV6 L1 protein antibody
As to B1, the binding result in assay [1], in assay [2], in assay [3] and in assay [4] was “no binding (tested: antibody 10 ng/mL; coating 2 µg/mL)” throughout. Further, the OD450-blank in assay [5] stood at 0.061 OD450; in assay [6], 0.047 OD450.

Values taken from patent US20240158474A1 (SINO BIOLOGICAL, published 2024).
